{
  "source": "paper PMC9917425",
  "about": "(2023)",
  "binders": {"B1": {"name": "α-dystroglycan (α-DG) (protein)", "chain": "HWPSEPSEAVRDWKNQLEASMHSVLSDFQEAVPTVVGIPDGTAVVGRSFRVSIPTDLIASSGEIIKVSAAGKEALPSWLHWDPHSHILEGLPLDTDKGVHYISVSAARLGANGSHVPQTSSVFSIEVYPEDHNEPQSVRAASSDPGEVVPSACAADEPVTVLMVILDADLTKMTPKQRIDLLNRMQSFSEVELHNMKLVPVVNNRLFDMSAFMAGPGNAKKVVENGALLSWKLGCSLNQNSVPDIRGVETPAREGAMSAQLGYPVVGWHIANKKPTLPKRLRRQIHATPTPVTAIGPPTTAIQEPPSRIVPTPTSPAIAPPTETMAPPVRDPVPGKPTVTIRTRGAIIQTPTLGPIQPTRVSEAGTTVPGQIRPTLTIPGYVEPTAVITPPTTTTKKPRVSTPKPATPSTDSSTTTTRRPTKKPRTPRPVPRVTTKAPITRLETASPPTRIRTTTSGVPRGGEPNQRPELKNHIDRVDAWVGTYFEVKIPSDTFYDNEDTTTDKLKLTLKLREQQLVGEKSWVQFNSNSQLMYGLPDSSHVGKHEYFMHATDKGGLSAVDAFEIHVHKRPQGDKAPARFKARLAGDPAPVVNDIHKKIALVKKLAFAFGDRNCSSITLQNITRG"}, "B2": {"name": "α-dystroglycan (α-DG) (protein)", "chain": "B1 chain with M163T", "modifications": "matriglycan O-glycosylation (full-length)"}, "B3": {"name": "α-dystroglycan lacking N-terminal domain (M-α-DGN KO) 317-653 (protein)", "chain": "TPVTAIGPPTTAIQEPPSRIVPTPTSPAIAPPTETMAPPVRDPVPGKPTVTIRTRGAIIQTPTLGPIQPTRVSEAGTTVPGQIRPTLTIPGYVEPTAVITPPTTTTKKPRVSTPKPATPSTDSSTTTTRRPTKKPRTPRPVPRVTTKAPITRLETASPPTRIRTTTSGVPRGGEPNQRPELKNHIDRVDAWVGTYFEVKIPSDTFYDNEDTTTDKLKLTLKLREQQLVGEKSWVQFNSNSQLMYGLPDSSHVGKHEYFMHATDKGGLSAVDAFEIHVHKRPQGDKAPARFKARLAGDPAPVVNDIHKKIALVKKLAFAFGDRNCSSITLQNITRGSI", "modifications": "short non-elongated matriglycan O-glycosylation"}},
  "note": "Changes are numbered by the printed parent chain.",
  "data": [
    {"target": "laminin-111 (Mus musculus, UniProt P19137)", "assay": "solid-phase binding assay", "units": {"Kd": "nM"}, "values": [
      {"binder": "B1", "Kd": 1.9},
      {"binder": "B2", "Kd": 0.966},
      {"binder": "B3", "Kd": 2.32}
    ]}
  ]
}
